Experimental data from paper PMC6233088.

Target: RGA5_S (RGA5 982-1116), small C-terminal fragment of RGA5 carrying the HMA domain (rice) (UniProt F7J0N2)
Assay: SEC

UniProt F7J0N2, sequence (F7J0N2 982-1116): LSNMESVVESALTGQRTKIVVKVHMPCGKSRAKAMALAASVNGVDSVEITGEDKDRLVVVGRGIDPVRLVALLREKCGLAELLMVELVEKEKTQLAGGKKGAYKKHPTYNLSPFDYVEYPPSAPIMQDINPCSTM

Substance “dSP-AVR1-CO39 (AVR1-CO39 with its signal peptide deleted), wild type, recombinant (natural protein)” has a stoichiometry N of 1.
